Here are results for 3 molecules from publication PMC5986797 (2018).

Experiment in all cases: SPR
(In general: SPR reads the build-up and loss of mass on a sensor chip optically.)

Assay [1] concerns the target T1, recombinant laminin LAMA3_(2928–3150) protein (human, UniProt Q16787 2928-3150).
T1 chain: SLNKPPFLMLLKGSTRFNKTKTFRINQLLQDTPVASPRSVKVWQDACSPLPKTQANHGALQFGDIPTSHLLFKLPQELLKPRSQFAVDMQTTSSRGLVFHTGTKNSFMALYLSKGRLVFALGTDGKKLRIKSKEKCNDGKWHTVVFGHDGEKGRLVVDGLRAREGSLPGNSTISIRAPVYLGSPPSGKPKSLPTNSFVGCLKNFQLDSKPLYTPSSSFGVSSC

Assay [2] deals with recombinant human laminin-521 (human, UniProt O15230 36-3695; P55268 33-1798; P11047 34-1609).
Assay [3] addresses T1, recombinant laminin LAMA3_(2928–3150) ….

B1: vascular endothelial cell growth factor VEGF-A165 (ligand)
chain: APMAEGGGQNHHEVVKFMDVYQRSYCHPIETLVDIFQEYPDEIEYIFKPSCVPLMRCGGCCNDEGLECVPTEESNITMQIMRIKPHQGQHIGEMSFLQHNKCECRPKKDRARQENPCGPCSERRKHLFVQDPQTCKCSCKNTDSRCKARQLELNERTCRCDKPRR
Regarding B1, the koff worked out at 0.00663 s⁻¹ in assay [1] and 0.00324 s⁻¹ in assay [2]. Moreover, in assay [3], the Kd was found to be 1.47 nM.

B2: platelet-derived growth factor PDGF-BB (ligand)
chain: SLGSLTIAEPAMIAECKTRTEVFEISRRLIDRTNANFLVWPPCVEVQRCSGCCNNRNVQCRPTQVQLRPVQVRKIEIVRKKPIFKKATVTLEDHLACKCETVAAARPVT
With B2, the koff in assay [1] amounted to 0.0136 s⁻¹; in assay [2], 0.00497 s⁻¹. Besides, the Kd in assay [3] was 12.1 nM.

B3: placental growth factor (PlGF)-2 (ligand)
chain: LPAVPPQQWALSAGNGSSEVEVVPFQEVWGRSYCRALERLVDVVSEYPSEVEHMFSPSCVSLLRCTGCCGDENLHCVPVETANVTMQLLKIRSGDRPSYVELTFSQHVRCECRPLREKMKPERRRPKGRGKRRREKQRPTDCHLCGDAVPRR
Consider B3, for which the koff in assay [2] worked out at 0.0246 s⁻¹.

By koff is commonly meant the rate constant with which the complex falls apart. As a reminder, the Kd is the concentration at which binding is half-saturated.
